Test results from patent US20090175786A1.

Experiments:
[1] = target: gastrin releasing peptide receptor (GRP-R), human (human) (UniProt P30550); assay: displacement of 125I-universal ligand, human tumour sections
[2] = target: neuromedin-B preferring receptor (NMB-R), human (human) (UniProt P28336); assay: as above
neuromedin-B preferring receptor (NMB-R), human (human), sequence (P28336 whole entry): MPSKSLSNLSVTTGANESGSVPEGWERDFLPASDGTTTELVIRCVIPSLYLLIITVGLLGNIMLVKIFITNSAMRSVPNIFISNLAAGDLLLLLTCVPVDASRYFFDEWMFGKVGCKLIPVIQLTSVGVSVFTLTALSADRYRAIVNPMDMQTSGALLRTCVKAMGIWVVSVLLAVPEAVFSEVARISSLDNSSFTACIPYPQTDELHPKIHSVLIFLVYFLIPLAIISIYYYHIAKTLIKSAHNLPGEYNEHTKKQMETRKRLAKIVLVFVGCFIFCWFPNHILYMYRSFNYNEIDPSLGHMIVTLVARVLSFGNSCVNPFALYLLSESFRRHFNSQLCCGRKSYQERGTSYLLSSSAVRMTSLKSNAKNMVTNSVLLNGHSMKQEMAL

gastrin releasing peptide receptor (GRP-R), human (human), sequence (P30550 whole entry): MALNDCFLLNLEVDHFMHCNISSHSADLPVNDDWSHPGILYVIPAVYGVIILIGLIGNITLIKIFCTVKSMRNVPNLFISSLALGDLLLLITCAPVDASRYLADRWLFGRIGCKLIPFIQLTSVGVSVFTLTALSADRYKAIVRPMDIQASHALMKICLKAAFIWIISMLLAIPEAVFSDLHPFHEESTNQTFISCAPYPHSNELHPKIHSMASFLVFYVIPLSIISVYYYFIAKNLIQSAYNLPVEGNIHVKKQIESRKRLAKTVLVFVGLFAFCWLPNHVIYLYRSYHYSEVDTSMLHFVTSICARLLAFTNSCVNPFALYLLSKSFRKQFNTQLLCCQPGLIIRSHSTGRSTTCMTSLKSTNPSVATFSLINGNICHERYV

IC50 [1]: 0.7 nM | IC50 [2]: 0.8 nM
Substance: [DTyr^6, βAla^11, Phe^13, Nle^14]-BBN(6-14) (peptide)
